B1: DGL527 (bispecific antibody, V domains shown)
V domain 1: EVQLVESGGGLVQPGGSLTLSCTASGFRFSDRSMGWYRQAPGKQRELVAAITVGGSTNYADSVKGRFTISRDNAKNTVYLQMNSLKPEDTALYYCNRRYPPDDYWGQGTQVTVEP
V domain 2: QVQLVESGGGLVRPGGSLRLSCAASGFTFSSNGMHWFRQAPGKGLEWVSSIGSGGTSIYYADSVKGRFTISRDNAKNTLYLQMNSLKSDDTAVYYCSKEVTGATRGQGTQVTVEP
B2: DGL599 (bispecific antibody, human IgG1, V domains shown)
V domain 1: EVQLVESGGGLVQAGGSLRLSCAASGSKFSFNAMGWYRQTPGKQRELVAIIINGDMINYADSVKGRFTISRDNAKNTMYLQMNSLKPEDTAVYYCKMTRYVYDYWGQGTQVTVEP
V domain 2: QVQLVQSGAEVKKPGASVRVSCKASGYTFTSYYIHWVRQAPGQGLEWMGIINPSGGSTSYAQKFQGRVTMTRDTSTTTVYMELSSLRSEDTAVYYCAKSNWAYAFDIWGQGTMVTVSS
B3: DGL407 (bispecific antibody, human IgG1, kappa)
heavy 1: not shown
heavy 2: QVQLVESGGGLVRPGGSLRLSCAASGFTFSSNGMHWFRQAPGKGLEWVSSIGSGGTSIYYADSVKGRFTISRDNAKNTLYLQMNSLKSDDTAVYYCSKEVTGATRGQGTQVTVEPKSSDKTHTCPPCPAPEAAGAPSVFLFPPKPKDTLMISRTPEVTCVVVDVSHEDPEVKFNWYVDGVEVHNAKTKPREEQYNSTYRVVSVLTVLHQDWLNGKEYKCKVSNKALPAPIEKTISKAKGQPREPQVCTLPPSRDELTKNQVSLSCAVKGFYPSDIAVEWESNGQPENNYKTTPPVLDSDGSFFLVSKLTVDKSRWQQGNVFSCSVMHEALHNRFTQKSLSLSPG
light: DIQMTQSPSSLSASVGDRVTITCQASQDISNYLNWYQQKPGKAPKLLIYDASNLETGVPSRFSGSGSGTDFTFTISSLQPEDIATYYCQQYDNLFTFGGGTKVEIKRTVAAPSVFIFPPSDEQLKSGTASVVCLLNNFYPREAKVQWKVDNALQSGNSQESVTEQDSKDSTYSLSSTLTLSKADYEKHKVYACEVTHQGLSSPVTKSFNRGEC
B4: DGL545 (bispecific antibody, V domains shown)
V domain 1: QVQLVESGGGAVQAGGSLRLSCAASGLTSRHYVMAWFRQAPGIEREFVASIWWGGSTYYADSVKDRFTISRDNAENTVYLQMNSLKPEDTAVYRCAVGTKIGTMGPRYDYWGQGTQVTVEP
V domain 2: QVQLVESGGGLVQAGGSLRLSCAASGRTFSSYAMGWFRQAPGKEREFVSAISWSGLSTYYVESVQGRFTISRDNAKNTVYLQMNSLKPEDTAVYYCAASRIYTNYVARSYEYDDWGQGTQVTVEP
B5: DGL524 (bispecific antibody, V domains shown)
V domain 1: EVQLVESGGGLVQPGGSLRLFCAASRSIFNINIMGWYRQAPGKQREWLASITSGGSTFYADSVKDRFTISRDSVKNTVYLQMNSLKPEDTAAYYCNRYRSVPLNTVYPWGQGTLVTVEP
V domain 2: QVQLVESGGGLVQAGGSLRLSCAASGRIFSAYRMGWFRQAPGKEREFVAGITWRGQTTYYAASVKGRFTISKDNAKKTVYLQMNSLKPEETAVYYCAVETNGLGRWDRPSEYDYWGQGTQVTVEP
B6: DGL537 (bispecific antibody, V domains shown)
V domain 1: QVQLVESGGGLVQAGGSLRLSCLASGRTSNYFMGWFRQAPGKEREFVAAISRSGGGTWYADSVKGRFAISRDNAKNTVNLQMNSLKREDTAVYYCAADRRTGTSVYTVDEYDYWGQGTQVTVEP
V domain 2: B5 V domain 2
B7: DGL462 (bispecific antibody, V domains shown)
V domain 1: EVQLVESGGGLVQPGGSLRLSCAASGFTFQNYAMSWLRKAPGEGLEWVSVINSGGGSTLYADSVKGRFTISRDNAKNTLYLQMHSLKSEDTAVYFCAKRRDDSTFGSLLYTHRGQGTQVTVEP
V domain 2: B5 V domain 2
B8: DGL408 (bispecific antibody, human IgG1, kappa)
heavy 1: not shown
heavy 2: QVQLVESGGGLVQPGGSLRLSCAASGFTFSNYAMSWVRQAPGKGLEWVSAINSDGTSTSYADSVKGQFTISRDNAKNTLYLQMNSLKPEDTAVYYCTKWEGDTDSDYKFKDYWGQGTQVTVEPKSSDKTHTCPPCPAPEAAGAPSVFLFPPKPKDTLMISRTPEVTCVVVDVSHEDPEVKFNWYVDGVEVHNAKTKPREEQYNSTYRVVSVLTVLHQDWLNGKEYKCKVSNKALPAPIEKTISKAKGQPREPQVCTLPPSRDELTKNQVSLSCAVKGFYPSDIAVEWESNGQPENNYKTTPPVLDSDGSFFLVSKLTVDKSRWQQGNVFSCSVMHEALHNRFTQKSLSLSPG
light: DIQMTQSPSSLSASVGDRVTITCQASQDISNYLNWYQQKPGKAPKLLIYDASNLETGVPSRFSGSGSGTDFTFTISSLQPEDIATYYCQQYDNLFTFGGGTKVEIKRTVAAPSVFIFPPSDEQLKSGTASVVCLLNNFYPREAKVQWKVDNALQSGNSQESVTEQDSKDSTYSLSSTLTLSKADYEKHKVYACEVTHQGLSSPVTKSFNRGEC
B9: DGL465 (bispecific antibody, V domains shown)
V domain 1: QVQLVESGGGLVQAGGSLRLSCAASGRAFSRYSMGWFRQAPGKEREFVAANYWSNGWTDYADTVKGRFSISRDNAKNTVYLQMNSLKPEDTAVYYCAGRSSSIPSADVVGYDYWGQGTQVTVEP
V domain 2: QVQLVESGGGLVQPGGSLRLSCAASGFTFEPYDMSWFRQAPGKGPEWVSAIDKGGGAGATYYADSVKGRFTISRDNAKKTLYLQMKSLKPEDTAVYYCAITAGPYSDSTPRVAYRGEGTQVTVEP
B10: DGL484 (bispecific antibody, V domains shown)
V domain 1: QVQLVESGGGLVQAGGSLRLSCAASARIFNSYAVAWFRQTPGKEREFVASISWSGGSTNYADSVKGRFTISRDNAKNTVFLQMNSLKPADTAVYYCAADRNYYPSVLGKYTYWGQGTQVTVEP
V domain 2: B9 V domain 2
B11: DGL499 (bispecific antibody, V domains shown)
V domain 1: EVQLVESGGGLVQAGGSLRLSCAASGLTFRNYAMAWFRQAPGKEREFVAGITWGGGLTHYVDSVKGRFTISRDNGKNTVYLQMNSLKSEDTAVYYCAGKTQGSTWYHLTPDGYDYWGQGTQVTVEP
V domain 2: B9 V domain 2
B12: DGL454 (bispecific antibody, V domains shown)
V domain 1: QVQLQESGGALVQPGGSLRLSCVVSGFTSDYFAIGWFRQAPGKEREGVSCIGSSDGSTIYSDSVKGRFTISRDNAKNTVYLQMNSLKPEDTGVYYCALDRGRRTIIGYACYATMKYWGKGTPVTVEP
V domain 2: B9 V domain 2
B13: DGL464 (bispecific antibody, V domains shown)
V domain 1: B9 V domain 1
V domain 2: QVQLVESGGGLVQPGGSLRLSCAASGFTFSNYAMSWVRQAPGKGLEWVSAINSDGTSTSYADSVKGQFTISRDNAKNTLYLQMNSLKPEDTAVYYCTKWEGDTDSDYKFKDYWGQGTQVTVEP
B14: DGL398 (bispecific antibody, human IgG1, kappa)
heavy 1: not shown
heavy 2: QVQLVESGGGLVQAGGSLRLSCAASGRTFSSYAMGWFRQAPGKEREFVSAISWSGLSTYYVESVQGRFTISRDNAKNTVYLQMNSLKPEDTAVYYCAASRIYTNYVARSYEYDDWGQGTQVTVEPKSSDKTHTCPPCPAPEAAGAPSVFLFPPKPKDTLMISRTPEVTCVVVDVSHEDPEVKFNWYVDGVEVHNAKTKPREEQYNSTYRVVSVLTVLHQDWLNGKEYKCKVSNKALPAPIEKTISKAKGQPREPQVCTLPPSRDELTKNQVSLSCAVKGFYPSDIAVEWESNGQPENNYKTTPPVLDSDGSFFLVSKLTVDKSRWQQGNVFSCSVMHEALHNRFTQKSLSLSPG
light: DIQLTQSPSFLSASVGDRVTITCRASQGISSYLAWYQQQPGKPPKLLIYAASTLHSGVPSRFSGSGSGTEFTLTISSLQPEDFATYYCQQLNRYPYTCGQGTKLEIKRTVAAPSVFIFPPSDEQLKSGTASVVCLLNNFYPREAKVQWKVDNALQSGNSQESVTEQDSKDSTYSLSSTLTLSKADYEKHKVYACEVTHQGLSSPVTKSFNRGEC
B15: DGL584 (bispecific antibody, V domains shown)
V domain 1: QVQLQESGGGLVQAGGSLRLSCAASGSIASINAMGWYRQAPGKQRDFVARIQLSGSTNYAHSVRGRFTISRDNAKNTVYLQMNNLKPEDTAVYVCAASNTGSLYGLRNYWGQGTQVTVEP
V domain 2: QVQLVESGGGLVQPGGSLRLSCAASGFTFSSKAMHWFRQAPGKGLEWVSSINSGGAITYYKDSVKGRFTVSRDNAKNILYLEMNSLKPEDTALYYCATDTDGRTRGQGTQVTVEP
B16: DGL571 (bispecific antibody, V domains shown)
V domain 1: QVQLVESGGGLVQAGGSLRLSCAASRSISSFNEMAWYRQAPGEQRELVATIVSTVGFTNYADSVKGRFTISRDNAKNTVYLQMNSLKAEDTAVYYCNARRISTDYWGQGTQVTVEP
V domain 2: QVQLVESGGGLVQPGGSLRLSCAASGFTFSNYAMSWIRQGPERGFEWVSRINSGGGTTSYADSVKGRFTISRDNAKNTLYLQMNSLKPEDTAVYYCAKHSHPDYSSNYYRPGQGTQVTVEP

Biological target: human IL-12 receptor (IL-12Rβ1 and IL-12Rβ2) on HEK-Blue IL-12 cells (human, UniProt P42701 24-662; Q99665 24-862)
Assay: cell-based or functional assay

human IL-12 receptor (IL-12Rβ1 and IL-12Rβ2) on HEK-Blue IL-12 cells, sequence (Q99665 24-862, chain 2 of 2, other chains not shown): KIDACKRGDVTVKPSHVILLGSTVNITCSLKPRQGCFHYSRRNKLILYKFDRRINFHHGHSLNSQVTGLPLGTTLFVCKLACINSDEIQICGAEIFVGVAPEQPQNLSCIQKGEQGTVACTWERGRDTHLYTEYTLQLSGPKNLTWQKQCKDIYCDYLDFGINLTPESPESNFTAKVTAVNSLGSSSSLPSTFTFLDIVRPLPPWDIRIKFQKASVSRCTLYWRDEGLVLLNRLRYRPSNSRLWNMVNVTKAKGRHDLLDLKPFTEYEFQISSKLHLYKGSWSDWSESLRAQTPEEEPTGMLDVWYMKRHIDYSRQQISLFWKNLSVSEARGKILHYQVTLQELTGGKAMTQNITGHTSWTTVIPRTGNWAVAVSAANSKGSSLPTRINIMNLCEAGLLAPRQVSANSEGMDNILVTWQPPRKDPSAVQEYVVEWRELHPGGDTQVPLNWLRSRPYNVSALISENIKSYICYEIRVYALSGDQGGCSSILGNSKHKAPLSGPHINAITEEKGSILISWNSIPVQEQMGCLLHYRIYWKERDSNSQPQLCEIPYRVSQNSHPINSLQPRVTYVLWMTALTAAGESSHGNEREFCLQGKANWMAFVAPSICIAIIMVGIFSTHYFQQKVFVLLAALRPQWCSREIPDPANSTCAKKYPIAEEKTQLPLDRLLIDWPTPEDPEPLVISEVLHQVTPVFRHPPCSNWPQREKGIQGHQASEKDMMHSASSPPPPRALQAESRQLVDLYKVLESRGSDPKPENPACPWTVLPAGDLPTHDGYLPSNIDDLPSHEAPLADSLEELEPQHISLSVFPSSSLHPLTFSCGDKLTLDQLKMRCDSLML

Binder	EC50	Max Absorbance
B1	> 100 nM	0.54
B2	> 100 nM	0.48
B3		0.17
B4	> 100 nM	0.59
B5	4.4e-10 M (implied)	0.58
B6	5.9e-10 M (implied)	0.55
B7	1.2e-09 M (implied)	0.52
B8		0.17
B9	> 100 nM	0.69
B10	9.7e-09 M (implied)	0.54
B11	8.1e-09 M (implied)	0.56
B12	> 100 nM	0.47
B13	> 100 nM	0.47
B14		0.17
B15	> 100 nM	0.58
B16	> 100 nM	0.64

From patent US20250019450A1 (DIAGONAL THERAPEUTICS, published 2025)
